One may read the Kd as the constant that tells how readily two partners part at equilibrium. As a reminder, the koff is a measure of how fast the partners let go of each other. The term kon denotes a measure of how fast the partners come together. A word on the t½: it is the time needed for the level to fall by half in the phase considered.

The source of these data is US20250049896A1 (Regeneron, published 2025).

Where a chain is given by its changes, count along the chain named.

For assay [1], the target named is T1, mf TFRC ecto-mmh (REGN2054), monomeric monkey (cyno) Tfrc ectodomain with C-terminal myc-myc-hexahistidine tag (monkey (cyno), Macaca fascicularis, UniProt H9EXL1 89-760).
T1 construct: range 89-760; also called mfTfR-mmh; mfTFR-mmh
T1 sequence (chain, as listed by the source): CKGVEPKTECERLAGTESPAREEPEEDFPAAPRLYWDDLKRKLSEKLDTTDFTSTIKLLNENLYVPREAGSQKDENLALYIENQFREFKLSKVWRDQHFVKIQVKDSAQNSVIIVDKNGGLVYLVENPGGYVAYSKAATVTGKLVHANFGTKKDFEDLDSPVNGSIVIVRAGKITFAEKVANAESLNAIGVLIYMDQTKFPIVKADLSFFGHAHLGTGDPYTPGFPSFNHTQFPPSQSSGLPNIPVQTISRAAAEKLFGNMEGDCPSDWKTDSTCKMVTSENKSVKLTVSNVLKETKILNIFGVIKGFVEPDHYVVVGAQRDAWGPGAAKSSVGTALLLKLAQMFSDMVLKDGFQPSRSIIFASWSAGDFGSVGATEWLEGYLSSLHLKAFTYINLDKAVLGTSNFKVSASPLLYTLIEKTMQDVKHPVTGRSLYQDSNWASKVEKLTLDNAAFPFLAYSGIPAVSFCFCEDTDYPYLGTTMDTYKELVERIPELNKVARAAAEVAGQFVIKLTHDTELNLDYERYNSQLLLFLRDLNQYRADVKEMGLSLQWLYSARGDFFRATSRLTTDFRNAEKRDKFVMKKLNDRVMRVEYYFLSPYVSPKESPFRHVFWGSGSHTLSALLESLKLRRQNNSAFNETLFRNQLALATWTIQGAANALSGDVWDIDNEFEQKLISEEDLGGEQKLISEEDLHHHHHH
Description: SPR (Biacore), mAb from CHO supernatant captured on anti-human Fc, 100 nM mfTfR-mmh injected, 25 C. The protocol:
(§1) Biacore binding kinetics assays were conducted for the interaction of 32 anti-human TfR IgG1 monoclonal antibodies from CHO supernatants with TfR reagents at 25° C.
(§2) Equilibrium dissociation constants (KD) for the interaction of anti-TfR monoclonal antibodies with human and fascicularis monkey TfR ecto domain recombinant proteins were determined using a real-time surface plasmon resonance (SPR) based Biacore S200 biosensor. All binding studies were performed in 10 mM HEPES, 150 mM NaCl, 3 mM EDTA, and 0.05% v/v surfactant Tween-20, pH 7.4 (HBS-EP) running buffer at 37° C. The Biacore CM5 sensor surface was first derivatized by amine coupling with a monoclonal mouse anti-human Fc antibody (REGN2567) followed by a step to capture anti-TfR monoclonal antibodies in CHO conditioned media. […] The dissociation of TfR bound to anti-TfR monoclonal antibodies was monitored for 3 minutes in HBS-EP running buffer. At the end of each cycle, the anti-TfR monoclonal antibodies capture surface was regenerated using a 12-sec injection of 20 mM H₃PO₄. The association rate (ka) and dissociation rate (kd) were determined by fitting the real-time binding sensorgrams to a 1:1 binding model with mass transport limitation using Scrubber 2.0 c software. The dissociation equilibrium constant (KD) and dissociative half-life (t½) were calculated from the kinetic rate constants as: […]
Background: SPR reads the build-up and loss of mass on a sensor chip optically.

The target in assay [2] is T1, mf TFRC ecto-mmh (REGN2054), monomeric …. Description: SPR (Biacore), mAb captured on anti-human Fc, 100 nM mfTfR-mmh, 25 C.
For assay [3], the target named is T2, hmm.hTfRC (REGN2431), human transferrin receptor extracellular domain with hexahistidine-myc-myc tag (human, UniProt P02786 89-760).
T2 construct: Monomeric recombinant protein, 79210 g/mol; also called hTFR-mmh; His-myc-myc-hTFRC ecto
T2 sequence (P02786 other isoform, or with tags, fused parts or gaps): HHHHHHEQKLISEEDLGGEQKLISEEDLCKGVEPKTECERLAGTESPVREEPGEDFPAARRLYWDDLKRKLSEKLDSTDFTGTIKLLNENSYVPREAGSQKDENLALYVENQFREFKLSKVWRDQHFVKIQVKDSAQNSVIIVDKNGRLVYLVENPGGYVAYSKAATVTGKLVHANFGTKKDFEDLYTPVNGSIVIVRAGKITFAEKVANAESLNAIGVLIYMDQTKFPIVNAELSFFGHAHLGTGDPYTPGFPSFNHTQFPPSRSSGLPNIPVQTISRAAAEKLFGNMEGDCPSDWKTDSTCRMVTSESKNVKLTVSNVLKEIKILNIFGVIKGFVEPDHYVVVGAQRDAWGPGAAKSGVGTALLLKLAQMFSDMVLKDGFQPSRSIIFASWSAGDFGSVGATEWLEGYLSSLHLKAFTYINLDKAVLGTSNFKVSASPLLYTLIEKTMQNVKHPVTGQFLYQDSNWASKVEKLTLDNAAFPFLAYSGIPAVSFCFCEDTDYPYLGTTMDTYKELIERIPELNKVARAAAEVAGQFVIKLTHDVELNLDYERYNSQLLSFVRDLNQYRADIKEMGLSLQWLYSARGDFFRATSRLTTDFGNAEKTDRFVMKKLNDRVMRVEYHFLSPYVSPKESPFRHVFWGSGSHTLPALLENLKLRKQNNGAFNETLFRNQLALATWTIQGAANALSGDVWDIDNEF
Description: SPR (Biacore), mAb from CHO supernatant captured on anti-human Fc, 100 nM hTFR-mmh injected, 25 C.

Assay [4] addresses T2, hmm.hTfRC (REGN2431), human transferrin …. As to the kind of experiment: SPR (Biacore), mAb captured on anti-human Fc, 100 nM hTFR-mmh, 25 C.
For assay [5] the target is unchanged. Description: SPR (Biacore), mAb captured on anti-human Fc, 100 nM hTFR-mmh, 25 C; kd fixed at 1.00E-05. The protocol: as §2, with “All binding studies were performed in 10 mM HEPES, 150 mM NaCl, 3 mM EDTA, and 0.05% v/v surfactant Tween-20, pH 7.4 (HBS-EP) running buffer at 37° C.” left out
Assay [6] addresses T3, REGN2431 (hmm.hTfRC); monomeric human Tfrc ectodomain, amino acids C89-F760, with N-terminal … (human, UniProt P02786 89-760).
T3 construct: also called hTfR-mmh; hTFR-mmh
Description: SPR (Biacore), mAb from CHO supernatant captured on anti-human Fc, 100 nM hTfR-mmh injected, 25 C. The procedure: as §1, §2

The target of assay [7] is T4, REGN2054 (mf TFRC ecto-mmh); monomeric monkey (cyno) Tfrc ectodomain, amino acids C89-F760, with C-terminal … (cynomolgus monkey (Macaca fascicularis), UniProt H9EXL1 89-760 (rhesus entry)).
T4 construct: range 89-760; also called mfTFR-mmh; mfTfR-mmh
T4 sequence (chain, as listed by the source): as the sequence (chain, as listed by the source) above
As to the kind of experiment: SPR (Biacore), mAb from CHO supernatant captured on anti-human Fc, 100 nM mfTFR-mmh injected, 25 C. The procedure:
as §1, §2

T3 sequence (P02786 other isoform, or with tags, fused parts or gaps): as the sequence (P02786 other isoform, or with tags, fused parts or gaps) above

B1: 69332 (antibody, human IgG1, kappa, V domains shown)
VH: QVTLRESGPALVKPSQTLTLTCTFSGFSLNTYGMFVSWIRQPPGKALEWLAHIHWDDDKYYSTSLKTRLTISKDTSKNQVVLTMTNMDPVDTATYYCARGHNNLNYIIHWGQGTLVTVSS
VL: AIQMTQSPSSLSASVGDRVTITCRASQGIRNDLGWYQQKPGKAPKLLIYAASTLQSGVPSRFSGSGSGTDFTLTISSLQPEDFATYYCLQDYNYPFTFGPGTKVDIKR
notes: Tested as bivalent human IgG1 from CHO primary supernatant
Turning to B1, the binding result in assay [1] and in assay [3] was “no binding (tested: 100 nM)” throughout. Besides, the “100 nM Ag Bound (RU)” value worked out at 1 RU in assay [2] and 9 RU in assay [4].

B2: 69305 (antibody, human IgG1, kappa, V domains shown)
VH: QVQLVESGGGVVQPGRSLRLSCAASGFTFSSYGMHWVRQAPGKGLEWVAVIWYDGSNKYYADSVKGRFTISRDISKNTLYLQMNSLRAEDTAVYYCAGQLDLFFDYWGQGTLVTVSS
VL: DIQMTQSPSSLSASVGDRVTITCRASQSIDRYLNWYRQKPGKAPKLLIYTTSSLQSGVPSRFSGSGSGTDFTLTLSSLQPEDFATYYCQQSYSPPLTFGGGTKVEIKR
notes: as for B1
For the molecule B2, the “100 nM Ag Bound (RU)” value is -7 RU in assay [2] and 6 RU in assay [4]. Besides, the binding result in assay [3] is on record as “no binding (tested: 100 nM)”.

B3: 31863B (antibody, human IgG1, kappa, V domains shown)
VH: EVQLVESGGGLVQPGGSLRLSCAASGFTFNSYAMTWVRQAPGKGLEWVSFIGGSTGNTYYAGSVKGRFTISSDNSKKTLYLQMNSLRAEDTAVYYCAKGGAARRMEYFQHWGQGTLVTVSS
VL: DIQMTQSPSSLSASIGDRVTITCRASQGISNYLAWYQQKPGKVPKLLIYAASTLQSGVPSRFSGSGSGTDFTLTISSLQPEDVATYYCQNHNSVPLTFGGGTKVEIKR
notes: as for B1
On to B3, for which, in assay [2], the “100 nM Ag Bound (RU)” value turned out to be 145 RU, the Kd turned out to be 18.3 nM, the koff was determined as 0.00298 s⁻¹ and the kon turned out to be 163000 M⁻¹ s⁻¹. For the same molecule, the t½ in assay [2] worked out at 0.065 h. Further, in assay [4], the “100 nM Ag Bound (RU)” value came out at 1080 RU, the koff was under 1e-05 s⁻¹, the kon turned out to be 152000 M⁻¹ s⁻¹ and the t½ is over 19.2 h. In assay [5], the Kd is at most 0.0656 nM.

B4: 69331 anti-human TfR IgG1 monoclonal antibody (antibody, V domains shown)
VH: QVQLVESGGGVVQPGRSLRLSCIASGFTFSVYGIHWVRQAPGKGLEWMAVISHDGNIKHYADSVKGRFTISRDNSKNTLYLQINSLRTEDTAVYYCAKDTWNSLDTFDIWGQGTMVTVSS
VL: B3 VL with M4L, I15V, R24W, N31S, V43A, D70E, V83F, N90Q, H91L, V94Y
notes: Tested as bivalent IgG1 from CHO primary supernatant
As to B4, the Kd stood at 41 nM in assay [6] and 20.5 nM in assay [7].

B5: 12795B (antibody, human IgG1, kappa, V domains shown)
VH: EVQLVESGGGLVQPGGSLRLSCATSGFTFTSYDMKWVRQAPGLGLEWVSAISGSGGNTYYADSVKGRFTISRDNSRNTLYLQMNSLRAEDTAVYYCTRSHDFGAFDYFDYWGQGTLVTVSS
VL: DIQMTQSPSSLSASVGDRVTITCRASQGIRDHFGWYQQKPGKAPKRLIYAASSLHSGVPSRFSGSGSGTEFTLTISSLQPEDFATYYCLQYDTYPLTFGGGTKVEIKR
notes: as for B1
As for B5, in assay [2], the “100 nM Ag Bound (RU)” value amounted to 364 RU, the Kd was 1.16 nM, the koff was found to be 7.13e-05 s⁻¹ and the kon came to 61000 M⁻¹ s⁻¹. Further, the t½ in assay [2] was 2.7 h. Further, in assay [4], the “100 nM Ag Bound (RU)” value came out at 883 RU, the koff was under 1e-05 s⁻¹, the kon was found to be 122000 M⁻¹ s⁻¹ and the t½ is over 19.2 h. In addition, the Kd in assay [5] is at most 0.0823 nM.

B6: 12795B anti-human TfR IgG1 monoclonal antibody (antibody, V domains shown)
VH: B5 VH
VL: B5 VL
notes: as for B4
In assay [7], B6 showed a Kd of 1.16 nM.
